Legend:
[1] = biological target: T1, human mesothelin (MSLN) peptide on HLA-A*02:01 (human); test: multimer staining
T1 peptide: VLPLTVAEV

[2] = biological target: T2, human mesothelin (MSLN) peptide on HLA-A*02:01 (human); test: multimer staining
T2 peptide: SLLFLLFSL

B1: MSLN530-538 clone 4 (TCR, V domains shown)
Valpha: AQTVTQSQPEMSVQEAETVTLSCTYDTSESDYYLFWYKQPPSRQMILVIRQEAYKQQNATENRFSVNFQKAAKSFSLKISDSQLGDAAMYFCAYLGTGTYKYIFGTGTRLKVLA
Vbeta: EAQVTQNPRYLITVTGKKLTVTCSQNMNHEYMSWYRQDPGLGLRQIYYSMNVEVTDKGDVPEGYKVSRKEKRNFPLILESPSPNQTSLYFCASSSGGLGYTFGSGTRLTVV
- binding result [1]: recognises

B2: MSLN20-28 clone 2 (TCR, V domains shown)
Valpha: DQQVKQNSPSLSVQEGRISILNCDYTNSMFDYFLWYKKYPAEGPTFLISISSIKDKNEDGRFTVFLNKSAKHLSLHIVPSQPGDSAVYFCAASGNTDKLIFGTGTRLQVFP
Vbeta: EPEVTQTPSHQVTQMGQEVILRCVPISNHLYFYWYRQILGQKVEFLVSFYNNEISEKSEIFDDQFSVERPDGSNFTLKIRSTKLEDSAMYFCASRPGWSYEQYFGPGTRLTVT
- binding result [2]: recognises

B3: MSLN530-538 clone 5 (TCR, V domains shown)
Valpha: TQLLEQSPQFLSIQEGENLTVYCNSSSVFSSLQWYRQEPGEGPVLLVTVVTGGEVKKLKRLTFQFGDARKDSSLHITAAQTGDTGLYLCAGGMESGGGADGLTFGKGTHLIIQP
Vbeta: DTGVSQNPRHKITKRGQNVTFRCDPISEHNRLYWYRQTLGQGPEFLTYFQNEAQLEKSRLLSDRFSAERPKGSFSTLEIQRTEQGDSAMYLCASTSTGGLKNTEAFFGQGTRLTVV
- binding result [1]: recognises

B4: MSLN20-28 clone 7 (TCR, V domains shown)
Valpha: ILNVEQSPQSLHVQEGDSTNFTCSFPSSNFYALHWYRWETAKSPEALFVMTLNGDEKKKGRISATLNTKEGYSYLYIKGSQPEDSATYLCAFYMDSNYQLIWGAGTKLIIKP
Vbeta: NAGVTQTPKFQVLKTGQSMTLQCAQDMNHNSMYWYRQDPGMGLRLIYYSASEGTTDKGEVPNGYNVSRLNKREFSLRLESAAPSQTSVYFCASSEWTAEQYFGPGTRLTVT
- binding result [2]: recognises

B5: MSLN20-28 clone 8 (TCR, V domains shown)
Valpha: AQSVTQLDSQVPVFEEAPVELRCNYSSSVSVYLFWYVQYPNQGLQLLLKYLSGSTLVKGINGFEAEFNKSQTSFHLRKPSVHISDTAEYFCAVIPNNNARLMFGDGTQLVVKP
Vbeta: ETGVTQTPRHLVMGMTNKKSLKCEQHLGHNAMYWYKQSAKKPLELMFVYNFKEQTENNSVPSRFSPECPNSSHLFLHLHTLQPEDSALYLCASGQGTEAFFGQGTRLTVV
- binding result [2]: recognises

— patent publication US20240209058A1 (published 2024)
